# Biological target: BOM1093 of Borrelia miyamotoi strain MYK3, 6xHis-tagged on the C terminus, expressed in B. garinii HT59G (Borrelia miyamotoi strain MYK3)
# Assay: ELISA; Maxisorp wells coated with 0.5 µg/well sonicated B. garinii HT59G/pBOM1093 in TBS; recombinant human Vn 6.25-400 nM, 2 h at room temperature; detected with mouse anti-human Vn IgG; values of the mock strain (pBSV2) subtracted; KD fitted in Prism
substance,measurement,value
recombinant human vitronectin (from UniProt P04004 20-478) (natural protein),Kd,10.8 nM

# Reference: publication PMC7943577
